# According to patent publication US20080280828A1 (NATURAL ENVIRONMENT RESEARCH COUNCIL, published 2008):
# B1: recombinant IGBPMA (rIGBPMA), N-terminal 26 amino acid truncated, C-terminal 6-His-tag, expressed in (other)
# chain: YEVYTGRGVTITVDNTQYEIPADLEKIFQKPKGFSVGSLLVALQEKGIPVNVDEKTGVILGITIDKVRVPFPVSIDLRFKLDNQIYLIPRDLAKLITVLEKKGMPSKILFILYTRYGVVPVRDSNGIVVAISFNGKQFKVKPEPLTAVVILGQKFILPRDTRKMVEFVHSKQSHPEIGFIFLKALKSAGFMLINDDDGAMRSIQKGAQIIKLGFEIRIQVIYGKTTYHVPKDLMRLVKDVRSLGPQEIQSVMKQLKAFDVQVKKEGSKLTILFNSVRYEVDLKSGNVKGHHHHHH
# notes: also called soluble rIGBPMA; Clone No. F6
# Tests used:
# human IgE (Serotech) = human IgE (Serotech) (human); assay: SPR (BIAcore 2000), human IgE against guinea pig IgG on the same chip
# [1] = molecular target: T1, human IgG Fc fragment (ICN) (human); assay: SPR (BIAcore 2000), human Fc immobilised, rIGBPMA 1 mg/ml as analyte
# T1 construct: domain: Fc fragment; also called human Fc fragment; Fc (human) fragment
binder,measurement,setting,value
B1,fold of binding signal against IgG,human IgE (Serotech),2 fold
same,"fold of binding over non-specific binding (BSA, F(ab)2)",[1],2 fold
